From paper PMC7948967, “The heme-binding protein PhuS transcriptionally regulates the Pseudomonas aeruginosa tandem sRNA prrF1,F2 locus”

Experiments:
PhuS [1] = molecular target: T1, PhuS (Pseudomonas aeruginosa PAO1, UniProt O68880 1-354); experiment: fluorescence anisotropy; apo-PhuS; much smaller anisotropy change; FA: 20 mM Tris-HCl pH 8.0, 100 mM NaCl, 0.05 mg/ml BSA, 10 nM DNA (Fur: 10 mM bis-Tris borate pH 7.5, 40 mM KCl, 0.1 mM MnSO4, 0.1 mg/ml BSA, 10% glycerol), temperature not stated; EMSA: 100 mM Tris pH 8.0, 500 mM NaCl, 10% glycerol, 10 ng/ml salmon sperm DNA, 37 C, 30 pM DNA; details: protein: recombinant; tags: none; label: 5'-6FAM; blunt
Fur = molecular target: T2, Fur (Pseudomonas aeruginosa, UniProt Q03456 1-134); experiment: fluorescence anisotropy; 0.1 mM MnSO4; bis-Tris borate pH 7.5, 40 mM KCl; FA: 20 mM Tris-HCl pH 8.0, 100 mM NaCl, 0.05 mg/ml BSA, 10 nM DNA (Fur: 10 mM bis-Tris borate pH 7.5, 40 mM KCl, 0.1 mM MnSO4, 0.1 mg/ml BSA, 10% glycerol), temperature not stated; EMSA: 100 mM Tris pH 8.0, 500 mM NaCl, 10% glycerol, 10 ng/ml salmon sperm DNA, 37 C, 30 pM DNA; details: protein: recombinant; tags: GST removed with thrombin (pGEX-2T); chain copies: 2; label: 5'-6FAM; blunt
T2 sequence: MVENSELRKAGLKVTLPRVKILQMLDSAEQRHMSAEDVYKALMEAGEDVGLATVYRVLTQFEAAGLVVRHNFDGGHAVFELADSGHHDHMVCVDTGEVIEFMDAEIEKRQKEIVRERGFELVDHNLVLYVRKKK

PhuS [2] = molecular target: T1, PhuS; experiment: fluorescence anisotropy; apo-PhuS; FA: 20 mM Tris-HCl pH 8.0, 100 mM NaCl, 0.05 mg/ml BSA, 10 nM DNA (Fur: 10 mM bis-Tris borate pH 7.5, 40 mM KCl, 0.1 mM MnSO4, 0.1 mg/ml BSA, 10% glycerol), temperature not stated; EMSA: 100 mM Tris pH 8.0, 500 mM NaCl, 10% glycerol, 10 ng/ml salmon sperm DNA, 37 C, 30 pM DNA; details: protein: recombinant; tags: none; label: 5'-6FAM; blunt
PhuS H212R = PhuS H212R (Pseudomonas aeruginosa PAO1, UniProt O68880 1-354, H212R); experiment: fluorescence anisotropy; apo-PhuS H212R; FA: 20 mM Tris-HCl pH 8.0, 100 mM NaCl, 0.05 mg/ml BSA, 10 nM DNA (Fur: 10 mM bis-Tris borate pH 7.5, 40 mM KCl, 0.1 mM MnSO4, 0.1 mg/ml BSA, 10% glycerol), temperature not stated; EMSA: 100 mM Tris pH 8.0, 500 mM NaCl, 10% glycerol, 10 ng/ml salmon sperm DNA, 37 C, 30 pM DNA; details: protein: recombinant; tags: none; label: 5'-6FAM; blunt

B1: prrF1-30 (dsDNA)
DNA 1: GACATGGAAATGAGAATCATTATTATGTCA
DNA 2: TGACATAATAATGATTCTCATTTCCATGTC
Kd (PhuS [1]): > 2000 nM | Kd (Fur): 50 ± 10 nM

B2: prrF1-50 (No Fur) (dsDNA)
DNA 1: ATTCCAGAGGGCTCGCGACTAGCTAGCAGAAAAGTTTGGCGAAAGCGTTT
DNA 2: AAACGCTTTCGCCAAACTTTTCTGCTAGCTAGTCGCGAGCCCTCTGGAAT
binding result (PhuS [2]): no binding

B3: prrF1-50 (FAM) (dsDNA)
DNA 1: AGCAGAAAAGTTTGGCGAAAGCGTTTGACATGGAAATGAGAATCATTATT
DNA 2: AATAATGATTCTCATTTCCATGTCAAACGCTTTCGCCAAACTTTTCTGCT
Kd (PhuS H212R): 90 ± 30 nM | Kd (PhuS [2]): 64 ± 10 nM

B4: prrF2-50 (Fur) (dsDNA)
DNA 1: ATGAGAACCGGCTTGACCTGATAATGAGAATAGTTATTATTACACCAACT
DNA 2: AGTTGGTGTAATAATAACTATTCTCATTATCAGGTCAAGCCGGTTCTCAT
binding result (PhuS [2]): no binding
